Results as given in patent publication US20110027273A1.

Target: mouse CD22 (mouse) (UniProt P35329)
Test: cell-based or functional assay

Chain of UniProt P35329 (P35329 22-868): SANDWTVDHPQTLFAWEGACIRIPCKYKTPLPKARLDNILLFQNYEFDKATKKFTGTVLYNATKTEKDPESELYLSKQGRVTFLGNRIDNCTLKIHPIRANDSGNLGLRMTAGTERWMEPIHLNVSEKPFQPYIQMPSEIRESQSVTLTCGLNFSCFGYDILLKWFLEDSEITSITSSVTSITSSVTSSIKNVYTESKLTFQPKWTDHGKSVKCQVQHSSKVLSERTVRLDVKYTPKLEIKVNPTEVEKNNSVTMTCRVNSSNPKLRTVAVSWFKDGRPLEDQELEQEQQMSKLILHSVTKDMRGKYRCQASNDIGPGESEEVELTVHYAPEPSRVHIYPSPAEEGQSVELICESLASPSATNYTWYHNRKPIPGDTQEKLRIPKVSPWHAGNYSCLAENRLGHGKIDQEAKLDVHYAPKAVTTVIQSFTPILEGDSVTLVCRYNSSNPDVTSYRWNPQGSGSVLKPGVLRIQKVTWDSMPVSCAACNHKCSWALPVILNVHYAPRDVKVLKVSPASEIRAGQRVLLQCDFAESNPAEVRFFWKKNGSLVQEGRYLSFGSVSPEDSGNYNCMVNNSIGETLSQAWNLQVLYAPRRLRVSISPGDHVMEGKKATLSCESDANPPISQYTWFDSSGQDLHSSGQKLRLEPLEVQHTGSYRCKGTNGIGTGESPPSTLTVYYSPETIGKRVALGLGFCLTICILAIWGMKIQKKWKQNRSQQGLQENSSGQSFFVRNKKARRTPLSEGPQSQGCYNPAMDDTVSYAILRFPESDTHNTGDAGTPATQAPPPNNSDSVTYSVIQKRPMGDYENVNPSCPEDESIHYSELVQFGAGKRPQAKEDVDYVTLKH

## CD22/cal (Cy34.1 mAb conjugated to N-acetyl gamma calicheamicin dimethyl acid) (antibody)
  IC50, in vitro cytotoxicity (proliferation of LPS-stimulated primary B cells, 48 hours): 0.08 µg/mL
  IC50, proliferation of LPS-stimulated primary mouse B cells (3H thymidine, 48 hr): 0.03 µg/mL
  selectivity against the control immunoconjugate J110/cal (IC50 3 µg/ml), B cell proliferation: 100 fold
